The target of test [1] is voltage-gated potassium channel KV1.6 (rat) (UniProt P17659).
Test [2] deals with KcsA-KV1.1 hybrid channel. Description: competitive binding on spheroplasts by confocal fluorescence microscopy.
Test [3] addresses KcsA-KV1.3 hybrid channel. The description is as above.

Our source for the IC50 of inhibition of KV1.6 currents, two-electrode voltage clamp in Xenopus oocytes and Kd values is article PMC5030662.

Several values for one entry are separate records, joined by “and”; a condition that tells them apart may be missing. Equal entries are not always repeated.

UniProt P17659, sequence (P17659 whole entry): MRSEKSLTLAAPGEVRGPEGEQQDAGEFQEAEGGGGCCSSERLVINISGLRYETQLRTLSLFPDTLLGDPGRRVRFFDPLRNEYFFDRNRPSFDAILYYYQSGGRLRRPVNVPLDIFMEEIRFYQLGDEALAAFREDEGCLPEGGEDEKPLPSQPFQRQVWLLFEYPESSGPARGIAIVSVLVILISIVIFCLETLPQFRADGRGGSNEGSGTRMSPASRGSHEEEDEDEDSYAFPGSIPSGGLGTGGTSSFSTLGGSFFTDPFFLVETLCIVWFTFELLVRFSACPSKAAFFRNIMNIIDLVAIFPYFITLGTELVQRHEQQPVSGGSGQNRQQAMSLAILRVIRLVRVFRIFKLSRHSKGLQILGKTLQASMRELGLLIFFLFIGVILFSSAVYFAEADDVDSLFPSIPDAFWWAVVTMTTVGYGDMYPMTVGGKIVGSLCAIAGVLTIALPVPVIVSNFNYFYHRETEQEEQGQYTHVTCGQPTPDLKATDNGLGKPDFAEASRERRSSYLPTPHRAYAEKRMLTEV

As to “OSK1 (from UniProt P55896 1-38) (peptide)”, the IC50 of inhibition of KV1.6 currents, two-electrode voltage clamp in Xenopus oocytes in test [1] was found to be 71 nM.
“AgTx2 (from UniProt P46111 1-38) (peptide)”: in test [1], the IC50 of inhibition of KV1.6 currents, two-electrode voltage clamp in Xenopus oocytes is 92 nM.
Usually Kd stands for the equilibrium constant for the complex coming apart. A high value points to lower affinity. In the case of GVIINVKCKISRQCLEPCKKAGMRFGKCMNGKCHCTPK [OSK1], the Kd in test [2] was 1.31 nM and 1.42 nM; in test [3], 0.9 nM and 0.7 nM.
On to GVPINVSCTGSPQCIKPCKDAGMRFGKCMNRKCHCTPK [AgTx2], for which the Kd in test [2] was 0.049 nM and 0.067 nM; in test [3], 0.031 nM and 0.03 nM.
